{"source": "patent US20230287081A1", "about": "(published 2023)", "binders": {"B1": {"name": "aPD-L1 (antibody, V domains shown)", "VH": "EVQLLESGGGLVQPGGSLSLSCAASGFSFSSGYDMCWVRQAPGKGLEWIACIAAGSAGITYDANWAKGRFTISRDNSKNTLYLQMNSLRAEDTAVYYCARSAFSFDYAMDLWGQGTLVTVSS", "VL": "DIQMTQSPSTLSASVGDRVTITCQASQSISSHLNWYQQKPGKAPKLLIYKASTLASGVPSRFSGSGSGTEFTLTISSLQPDDFATYYCQQGYSWGNVDNVFGGGTKVTVL"}, "B2": {"name": "PD-1m-aGPC-3L (bispecific antibody)", "heavy": "QVQLVQSGAEVKKPGASVKVSCKASGYTFTDYEMHWVRQAPGQGLEWMGALDPKTGDTAYSQKFKGRVTLTADKSTSTAYMELSSLTSEDTAVYYCTRFYSYTYWGQGTLVTVSSASTKGPSVFPLAPSSKSTSGGTAALGCLVKDYFPEPVTVSWNSGALTSGVHTFPAVLQSSGLYSLSSVVTVPSSSLGTQTYICNVNHKPSNTKVDKKVEPKSCDKTHTCPPCPAPPVAGPSVFLFPPKPKDTLMISRTPEVTCVVVDVSHEDPEVKFNWYVDGVEVHNAKTKPREEQYNSTYRVVSVLTVLHQDWLNGKEYKCKVSNKGLPSSIEKTISKAKGQPREPQVYTLPPSRDELTKNQVSLTCLVKGFYPSDIAVEWESNGQPENNYKTTPPVLDSDGSFFLYSKLTVDKSRWQQGNVFSCSVMHEALHNHYTQKSLSLSPGK", "light": "LDSPDRPWNPPTFSPALLVVTEGDNATFTCSFSNTSESFVLNWYRMSPSNQTDKLAAFPEDRSQPGQDSRFRVTQLPNGRDFHMSVVRARRNDSGTYLCGAISLAPKVQIKESLRAELRVTERRAEVPTAHPSPSPRPAGQFQGGGGSGGGGSGGGGSGDVVMTQSPLSLPVTPGEPASISCRSSQSLVHSNRNTYLHWYLQKPGQSPQLLIYKVSNRFSGVPDRFSGSGSGTDFTLKISRVEAEDVGVYYCSQNTHVPPTFGQGTKLEIKRTVAAPSVFIFPPSDEQLKSGTASVVCLLNNFYPREAKVQWKVDNALQSGNSQESVTEQDSKDSTYSLSSTLTLSKADYEKHKVYACEVTHQGLSSPVTKSFNRGEC"}, "B3": {"name": "PD-1m-aEGFRL (bispecific antibody)", "heavy": "QVQLQESGPGLVKPSETLSLTCTVSGGSVSSGDYYWTWIRQSPGKGLEWIGHIYYSGNTNYNPSLKSRLTISIDTSKTQFSLKLSSVTAADTAIYYCVRDRVTGAFDIWGQGTMVTVSSASTKGPSVFPLAPSSKSTSGGTAALGCLVKDYFPEPVTVSWNSGALTSGVHTFPAVLQSSGLYSLSSVVTVPSSSLGTQTYICNVNHKPSNTKVDKKVEPKSCDKTHTCPPCPAPPVAGPSVFLFPPKPKDTLMISRTPEVTCVVVDVSHEDPEVKFNWYVDGVEVHNAKTKPREEQYNSTYRVVSVLTVLHQDWLNGKEYKCKVSNKGLPSSIEKTISKAKGQPREPQVYTLPPSRDELTKNQVSLTCLVKGFYPSDIAVEWESNGQPENNYKTTPPVLDSDGSFFLYSKLTVDKSRWQQGNVFSCSVMHEALHNHYTQKSLSLSPGK", "light": "not shown"}, "B4": {"name": "PD-1-aEGFRL (bispecific antibody)", "heavy": "QVQLQESGPGLVKPSETLSLTCTVSGGSVSSGDYYWTWIRQSPGKGLEWIGHIYYSGNTNYNPSLKSRLTISIDTSKTQFSLKLSSVTAADTAIYYCVRDRVTGAFDIWGQGTMVTVSSASTKGPSVFPLAPSSKSTSGGTAALGCLVKDYFPEPVTVSWNSGALTSGVHTFPAVLQSSGLYSLSSVVTVPSSSLGTQTYICNVNHKPSNTKVDKKVEPKSCDKTHTCPPCPAPPVAGPSVFLFPPKPKDTLMISRTPEVTCVVVDVSHEDPEVKFNWYVDGVEVHNAKTKPREEQYNSTYRVVSVLTVLHQDWLNGKEYKCKVSNKGLPSSIEKTISKAKGQPREPQVYTLPPSRDELTKNQVSLTCLVKGFYPSDIAVEWESNGQPENNYKTTPPVLDSDGSFFLYSKLTVDKSRWQQGNVFSCSVMHEALHNHYTQKSLSLSPGK", "light": "not shown"}}, "test_in_all_cases": "ELISA", "key": {"[1]": {"biological_target": "T1, hPD-L1-hIGg1Fc (SinoBiological) (human, UniProt Q9NZQ7 19-238)", "T1 sequence (Q9NZQ7 19-238)": "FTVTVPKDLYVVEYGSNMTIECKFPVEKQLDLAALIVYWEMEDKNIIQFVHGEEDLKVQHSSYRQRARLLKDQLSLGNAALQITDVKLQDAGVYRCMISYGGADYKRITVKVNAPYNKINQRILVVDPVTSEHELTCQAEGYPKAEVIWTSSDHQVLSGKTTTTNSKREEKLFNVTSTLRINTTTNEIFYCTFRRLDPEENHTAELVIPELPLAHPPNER"}, "[2]": {"biological_target": "T1, hPD-L1-hIGg1Fc (SinoBiological)", "remark": "listed apart in the source"}, "[3]": {"biological_target": "T1, hPD-L1-hIGg1Fc (SinoBiological)", "remark": "listed apart in the source"}, "[4]": {"biological_target": "T1, hPD-L1-hIGg1Fc (SinoBiological)", "remark": "listed apart in the source"}}, "note": "Read-outs that look alike come from different tables or passages of the source.", "data": [{"binder": "B1", "values": [{"measurement": "EC50", "setting": "[1]", "result": 0.068, "unit": "nM"}, {"measurement": "EC50", "setting": "[2]", "result": 0.068, "unit": "nM"}]}, {"binder": "B2", "values": [{"measurement": "EC50", "setting": "[3]", "result": 0.0258, "unit": "nM"}]}, {"binder": "B3", "values": [{"measurement": "EC50", "setting": "[4]", "result": 0.0394, "unit": "nM"}]}, {"binder": "B4", "values": [{"measurement": "EC50", "setting": "[4]", "result": 1.54, "unit": "nM"}]}]}
